2 substances from patent publication US20230331860A1 can be followed below.

Some targets named below: hCD32a-H131 (human) (UniProt P12318); hCD64 (human) (UniProt P12314); hCD32a-R131 (human) (UniProt P12318); hCD16a-V158 (human) (UniProt P08637); hCD32b (human) (UniProt P31994); hCD16a-F158 (human) (UniProt P08637).
Holding throughout (experiment): FcγR binding, SPR (method per paragraph 74)
Assay [1] concerns the target cyCD64 (cynomolgus monkey).
In assay [2] the target is cyCD16 (cynomolgus monkey) (UniProt Q8SPW2).
Sequence of cyCD16 (cynomolgus monkey) (Q8SPW2 17-208 limits assumed): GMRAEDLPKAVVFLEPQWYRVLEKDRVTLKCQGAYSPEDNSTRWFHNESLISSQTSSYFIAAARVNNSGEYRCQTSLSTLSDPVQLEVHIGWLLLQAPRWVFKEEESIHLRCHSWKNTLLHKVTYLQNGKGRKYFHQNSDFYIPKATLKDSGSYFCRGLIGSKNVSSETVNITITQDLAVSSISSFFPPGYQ
The target in assay [3] is cyCD32b (cynomolgus monkey).
For assay [4], the target named is cyCD32a (cynomolgus monkey).

Sequence of BMS-986325 (antibody) (heavy): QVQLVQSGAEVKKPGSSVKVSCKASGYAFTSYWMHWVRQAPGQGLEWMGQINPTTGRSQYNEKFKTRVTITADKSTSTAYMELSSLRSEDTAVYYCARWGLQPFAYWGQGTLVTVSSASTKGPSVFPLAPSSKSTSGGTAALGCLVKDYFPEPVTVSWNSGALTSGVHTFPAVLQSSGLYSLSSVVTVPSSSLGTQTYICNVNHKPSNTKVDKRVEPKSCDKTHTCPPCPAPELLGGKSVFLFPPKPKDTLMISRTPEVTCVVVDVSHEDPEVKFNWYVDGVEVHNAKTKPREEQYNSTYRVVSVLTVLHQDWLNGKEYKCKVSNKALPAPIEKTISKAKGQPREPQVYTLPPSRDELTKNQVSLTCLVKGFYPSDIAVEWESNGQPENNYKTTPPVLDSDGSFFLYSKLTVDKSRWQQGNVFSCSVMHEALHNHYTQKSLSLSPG
Sequence of BMS-986325 (antibody) (light): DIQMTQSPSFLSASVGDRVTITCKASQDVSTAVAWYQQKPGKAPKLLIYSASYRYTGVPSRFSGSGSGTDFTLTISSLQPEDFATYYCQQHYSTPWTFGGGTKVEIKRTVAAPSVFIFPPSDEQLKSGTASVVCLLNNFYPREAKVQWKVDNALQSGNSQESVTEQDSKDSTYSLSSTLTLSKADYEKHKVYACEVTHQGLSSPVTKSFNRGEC
Sequence of hCD64 (human) (P12314 16-288 limits assumed): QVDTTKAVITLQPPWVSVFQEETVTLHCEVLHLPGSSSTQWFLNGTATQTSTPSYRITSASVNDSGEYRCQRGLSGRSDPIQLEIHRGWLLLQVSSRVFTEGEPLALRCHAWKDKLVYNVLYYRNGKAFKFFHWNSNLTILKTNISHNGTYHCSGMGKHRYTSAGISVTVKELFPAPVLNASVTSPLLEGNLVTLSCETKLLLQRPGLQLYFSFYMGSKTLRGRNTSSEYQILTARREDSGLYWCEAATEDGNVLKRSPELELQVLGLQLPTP
Sequence of hCD32a-H131 (human) (P12318 36-218 limits assumed): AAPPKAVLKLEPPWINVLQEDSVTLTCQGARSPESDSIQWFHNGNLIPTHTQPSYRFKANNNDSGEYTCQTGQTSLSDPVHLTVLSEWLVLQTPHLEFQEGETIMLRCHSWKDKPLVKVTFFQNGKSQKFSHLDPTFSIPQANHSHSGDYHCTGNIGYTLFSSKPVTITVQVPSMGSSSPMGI
Sequence of hCD16a-V158 (human) (P08637 17-208 F176V limits assumed): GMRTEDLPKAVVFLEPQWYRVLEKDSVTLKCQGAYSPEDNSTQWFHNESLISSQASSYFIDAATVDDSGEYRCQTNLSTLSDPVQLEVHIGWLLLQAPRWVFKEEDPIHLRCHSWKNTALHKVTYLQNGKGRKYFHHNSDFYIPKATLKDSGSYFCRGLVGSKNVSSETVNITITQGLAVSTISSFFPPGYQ
Sequence of hCD16a-F158 (human) (P08637 17-208 limits assumed): as the sequence (P08637 17-208 F176V limits assumed) above, with V160F counted along it
Sequence of hCD32a-R131 (human) (P12318 36-218 H167R limits assumed): as the sequence (P12318 36-218 limits assumed) above, with H132R counted along it
Sequence of hCD32b (human) (P31994 43-217 limits assumed): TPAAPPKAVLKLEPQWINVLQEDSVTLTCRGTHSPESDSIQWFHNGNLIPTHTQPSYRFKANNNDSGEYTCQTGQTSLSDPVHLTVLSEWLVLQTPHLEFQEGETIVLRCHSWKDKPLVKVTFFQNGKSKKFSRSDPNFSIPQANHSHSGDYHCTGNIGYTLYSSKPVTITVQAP

Regarding BMS-986325 (antibody), in [1], the Kd (usually a measure of binding affinity in units of concentration) amounted to 13 nM and the fold weaker binding than wild-type human IgG1 control is 100 fold.

In the case of wild-type human IgG1 control (antibody), the Kd was 164 nM in assay [2]; 446 nM in the assay with hCD32a-H131 (human); less than 0.1 nM in assay [1]; less than 0.1 nM in the assay with hCD64 (human); 877 nM in assay [3]; 665 nM with hCD32a-R131 (human). The Kd with hCD16a-V158 (human) stood at 119 nM; in the assay with hCD32b (human) it was 3090 nM; in [4], 1520 nM; with hCD16a-F158 (human) it was 4430 nM.
